Measurements taken from patent US20140093973A1 (BOARD OF REGENTS OF THE UNIVERSITY OF OKLAHOMA, published 2014).
Read-outs that look alike come from different tables or passages of the source. Ends that are not written are not given here.

Experiments:
[1] = target: soluble HLA-A*0201 (sHLA-A*0201) (human); assay: FP screen
[2] = target: T1, soluble HLA-B*2705 (sHLA-B*2705) (human); assay: FP screen
T1 construct: Recombinant soluble class I with endogenous peptides, made as m1; negative control

[3] = target: T2, soluble HLA-A*0101 (human); assay: FP screen
T2 construct: Member of the panel of 53 single-specificity sHLA

[4] = target: T3, soluble HLA-A*3601 (human); assay: FP screen
T3 construct: Member of the panel of 53 single-specificity sHLA

[5] = target: T4, soluble HLA-A*2601 (human); assay: FP screen
T4 construct: Member of the panel of 53 single-specificity sHLA

[6] = target: T5, soluble HLA-B*1302 (human); assay: FP screen
T5 construct: Member of the panel of 53 single-specificity sHLA

[7] = target: T6, soluble HLA-B*1501 (human); assay: FP screen
T6 construct: Member of the panel of 53 single-specificity sHLA

[8] = target: T7, soluble HLA-B*1512 (human); assay: FP screen
T7 construct: Member of the panel of 53 single-specificity sHLA

[9] = target: T8, soluble HLA-A*6901 (sHLA-A*6901) (human); assay: FP screen
T8 construct: Recombinant soluble class I with endogenous peptides, made as m1

[10] = target: T9, soluble HLA-A*2402 (human); assay: FP screen
T9 construct: Member of the panel of 53 single-specificity sHLA

[11] = target: T10, soluble HLA-A*2301 (human); assay: FP screen
T10 construct: Member of the panel of 53 single-specificity sHLA

[12] = target: T11, soluble HLA-A*6601 (human); assay: FP screen
T11 construct: Member of the panel of 53 single-specificity sHLA

[13] = target: T12, soluble HLA-B*4501 (human); assay: FP screen
T12 construct: Member of the panel of 53 single-specificity sHLA

[14] = target: T13, soluble HLA-A*3002 (human); assay: FP screen
T13 construct: Member of the panel of 53 single-specificity sHLA

[15] = target: T14, soluble HLA-B*1801 (human); assay: FP screen
T14 construct: Member of the panel of 53 single-specificity sHLA

[16] = target: T15, soluble HLA-B*4002 (human); assay: FP screen
T15 construct: Member of the panel of 53 single-specificity sHLA

[17] = target: T16, soluble HLA-B*4001 (human); assay: FP screen
T16 construct: Member of the panel of 53 single-specificity sHLA

[18] = target: T17, soluble HLA-B*4402 (human); assay: FP screen
T17 construct: Member of the panel of 53 single-specificity sHLA

[19] = target: T18, soluble HLA-A*4301 (sHLA-A*4301) (human); assay: FP screen
T18 construct: Recombinant soluble class I with endogenous peptides, made as m1

[20] = target: T19, soluble HLA-A*3402 (human); assay: FP screen of 53 sHLA with FITC-peptide
T19 construct: Member of the panel of 53 single-specificity sHLA

[21] = target: T20, soluble HLA-A*0301 (human); assay: FP screen of 53 sHLA with FITC-peptide
T20 construct: Member of the panel of 53 single-specificity sHLA

[22] = target: soluble HLA-A*0201 (sHLA-A*0201) (human); assay: FP screen; remark: listed apart in the source
[23] = target: T1, soluble HLA-B*2705 (sHLA-B*2705); assay: FP screen; remark: listed apart in the source
[24] = target: T21, soluble HLA-A*6801 (sHLA-A*6801) (human); assay: FP screen
T21 construct: Recombinant soluble class I with endogenous peptides, made as m1

[25] = target: T5, soluble HLA-B*1302; assay: FP screen; remark: listed apart in the source
[26] = target: T6, soluble HLA-B*1501; assay: FP screen; remark: listed apart in the source
[27] = target: T7, soluble HLA-B*1512; assay: FP screen; remark: listed apart in the source
[28] = target: T20, soluble HLA-A*0301; assay: FP screen
[29] = target: T8, soluble HLA-A*6901 (sHLA-A*6901); assay: FP screen; remark: listed apart in the source
[30] = target: T9, soluble HLA-A*2402; assay: FP screen; remark: listed apart in the source
[31] = target: T10, soluble HLA-A*2301; assay: FP screen; remark: listed apart in the source
[32] = target: T11, soluble HLA-A*6601; assay: FP screen; remark: listed apart in the source
[33] = target: T12, soluble HLA-B*4501; assay: FP screen; remark: listed apart in the source
[34] = target: T13, soluble HLA-A*3002; assay: FP screen; remark: listed apart in the source
[35] = target: T14, soluble HLA-B*1801; assay: FP screen; remark: listed apart in the source
[36] = target: T15, soluble HLA-B*4002; assay: FP screen; remark: listed apart in the source
[37] = target: T16, soluble HLA-B*4001; assay: FP screen; remark: listed apart in the source
[38] = target: T17, soluble HLA-B*4402; assay: FP screen; remark: listed apart in the source
[39] = target: T22, soluble HLA-A*1102 (sHLA-A*1102) (human, UniProt P04439 25-308; P61769 21-119); assay: FP screen
T22 construct: Recombinant soluble class I with endogenous peptides, made as m1

[40] = target: T2, soluble HLA-A*0101; assay: FP screen of 53 sHLA with FITC-peptide
[41] = target: T23, soluble HLA-A*2902 (human); assay: FP screen of 53 sHLA with FITC-peptide
T23 construct: Member of the panel of 53 single-specificity sHLA

[42] = target: soluble HLA-A*0201 (sHLA-A*0201) (human); assay: FP screen; remark: listed apart in the source
[43] = target: T1, soluble HLA-B*2705 (sHLA-B*2705); assay: FP screen; remark: listed apart in the source
[44] = target: T21, soluble HLA-A*6801 (sHLA-A*6801); assay: FP screen; remark: listed apart in the source
[45] = target: T2, soluble HLA-A*0101; assay: FP screen; remark: listed apart in the source
[46] = target: T3, soluble HLA-A*3601; assay: FP screen; remark: listed apart in the source
[47] = target: T19, soluble HLA-A*3402; assay: FP screen
[48] = target: T4, soluble HLA-A*2601; assay: FP screen; remark: listed apart in the source
[49] = target: T5, soluble HLA-B*1302; assay: FP screen; remark: listed apart in the source
[50] = target: T7, soluble HLA-B*1512; assay: FP screen; remark: listed apart in the source
[51] = target: T20, soluble HLA-A*0301; assay: FP screen; remark: listed apart in the source
[52] = target: T8, soluble HLA-A*6901 (sHLA-A*6901); assay: FP screen; remark: listed apart in the source
[53] = target: T13, soluble HLA-A*3002; assay: FP screen; remark: listed apart in the source
[54] = target: T14, soluble HLA-B*1801; assay: FP screen; remark: listed apart in the source
[55] = target: T15, soluble HLA-B*4002; assay: FP screen; remark: listed apart in the source
[56] = target: T16, soluble HLA-B*4001; assay: FP screen; remark: listed apart in the source
[57] = target: T17, soluble HLA-B*4402; assay: FP screen; remark: listed apart in the source
[58] = target: T18, soluble HLA-A*4301 (sHLA-A*4301); assay: FP screen; remark: listed apart in the source
[59] = target: T22, soluble HLA-A*1102 (sHLA-A*1102); assay: FP screen; remark: listed apart in the source
[60] = target: T23, soluble HLA-A*2902; assay: FP screen of 53 sHLA with FITC-peptide; remark: listed apart in the source
[61] = target: T6, soluble HLA-B*1501; assay: FP screen of 53 sHLA with FITC-peptide
[62] = target: T9, soluble HLA-A*2402; assay: FP screen of 53 sHLA with FITC-peptide
[63] = target: T10, soluble HLA-A*2301; assay: FP screen of 53 sHLA with FITC-peptide
[64] = target: T11, soluble HLA-A*6601; assay: FP screen of 53 sHLA with FITC-peptide
[65] = target: T12, soluble HLA-B*4501; assay: FP screen of 53 sHLA with FITC-peptide

B1: KVFPKALINK, FITC-labeled A3-like peptide (peptide)
peptide: KVFPKALINK
modifications: also: FITC-labeled, position not given here
binding result [1]: no binding (tested: 100 ug/ml sHLA)
binding result [2]: no binding (tested: 100 ug/ml sHLA)
binding result [3]: no binding (tested: 100 ug/ml sHLA)
binding result [4]: no binding (tested: 100 ug/ml sHLA)
binding result [5]: no binding (tested: 100 ug/ml sHLA)
binding result [6]: no binding (tested: 100 ug/ml sHLA)
binding result [7]: no binding (tested: 100 ug/ml sHLA)
binding result [8]: no binding (tested: 100 ug/ml sHLA)
binding result [9]: no binding (tested: 100 ug/ml sHLA)
binding result [10]: no binding (tested: 100 ug/ml sHLA)
binding result [11]: no binding (tested: 100 ug/ml sHLA)
binding result [12]: no binding (tested: 100 ug/ml sHLA)
binding result [13]: no binding (tested: 100 ug/ml sHLA)
binding result [14]: no binding (tested: 100 ug/ml sHLA)
binding result [15]: no binding (tested: 100 ug/ml sHLA)
binding result [16]: no binding (tested: 100 ug/ml sHLA)
binding result [17]: no binding (tested: 100 ug/ml sHLA)
binding result [18]: no binding (tested: 100 ug/ml sHLA)
binding result [19]: no binding (tested: 100 ug/ml sHLA)
binding result [20]: binds
binding result [21]: binds

B2: YLEPAKAKY, FITC-labeled A1-like peptide (peptide)
peptide: YLEPAKAKY
modifications: also: FITC-labeled, position not given here
binding result [22]: no binding (tested: 100 ug/ml sHLA)
binding result [23]: no binding (tested: 100 ug/ml sHLA)
binding result [24]: no binding (tested: 100 ug/ml sHLA)
binding result [25]: no binding (tested: 100 ug/ml sHLA)
binding result [26]: no binding (tested: 100 ug/ml sHLA)
binding result [27]: no binding (tested: 100 ug/ml sHLA)
binding result [28]: no binding (tested: 100 ug/ml sHLA)
binding result [29]: no binding (tested: 100 ug/ml sHLA)
binding result [30]: no binding (tested: 100 ug/ml sHLA)
binding result [31]: no binding (tested: 100 ug/ml sHLA)
binding result [32]: no binding (tested: 100 ug/ml sHLA)
binding result [33]: no binding (tested: 100 ug/ml sHLA)
binding result [34]: no binding (tested: 100 ug/ml sHLA)
binding result [35]: no binding (tested: 100 ug/ml sHLA)
binding result [36]: no binding (tested: 100 ug/ml sHLA)
binding result [37]: no binding (tested: 100 ug/ml sHLA)
binding result [38]: no binding (tested: 100 ug/ml sHLA)
binding result [39]: no binding (tested: 100 ug/ml sHLA)
binding result [40]: binds
binding result [41]: binds

B3: QYSWFKNGTF, FITC-labeled A24-like peptide (peptide)
peptide: QYSWFKNGTF
modifications: not fully specified; also: FITC-labeled, position not given here
binding result [42]: no binding (tested: 100 ug/ml sHLA)
binding result [43]: no binding (tested: 100 ug/ml sHLA)
binding result [44]: no binding (tested: 100 ug/ml sHLA)
binding result [45]: no binding (tested: 100 ug/ml sHLA)
binding result [46]: no binding (tested: 100 ug/ml sHLA)
binding result [47]: no binding (tested: 100 ug/ml sHLA)
binding result [48]: no binding (tested: 100 ug/ml sHLA)
binding result [49]: no binding (tested: 100 ug/ml sHLA)
binding result [50]: no binding (tested: 100 ug/ml sHLA)
binding result [51]: no binding (tested: 100 ug/ml sHLA)
binding result [52]: no binding (tested: 100 ug/ml sHLA)
binding result [53]: no binding (tested: 100 ug/ml sHLA)
binding result [54]: no binding (tested: 100 ug/ml sHLA)
binding result [55]: no binding (tested: 100 ug/ml sHLA)
binding result [56]: no binding (tested: 100 ug/ml sHLA)
binding result [57]: no binding (tested: 100 ug/ml sHLA)
binding result [58]: no binding (tested: 100 ug/ml sHLA)
binding result [59]: no binding (tested: 100 ug/ml sHLA)
binding result [60]: binds
binding result [61]: binds
binding result [62]: binds
binding result [63]: binds
binding result [64]: binds
binding result [65]: binds
